Test results published in paper PMC4221194.
Values belong to the substance of their own block, whether it stands above or below them.

Legend:
Test in all cases: SEC; Superdex 75 10/300 GL column, after Ni-NTA purification; absorbance at 280 nm; proteins eluted at about 80 kDa
[1] = molecular target: D22G-Angiogenin-GST (human Angiogenin D22G fused to GST, with a C-terminal hexa-histidine tag) (human) (UniProt P03950)
[2] = molecular target: L35P-Angiogenin-GST (human Angiogenin L35P fused to GST, with a C-terminal hexa-histidine tag) (human) (UniProt P03950)
[3] = molecular target: wild-type Angiogenin-GST (human Angiogenin fused to GST, with a C-terminal hexa-histidine tag) (human) (UniProt P03950)

stoichiometry N [1]: 2
Substance: D22G-Angiogenin-GST (human Angiogenin D22G fused to GST, with a C-terminal hexa-histidine tag) (from UniProt P03950 25-147) (enzyme)

stoichiometry N [2]: 2
Substance: L35P-Angiogenin-GST (human Angiogenin L35P fused to GST, with a C-terminal hexa-histidine tag) (from UniProt P03950 25-147) (enzyme)

stoichiometry N [3]: 2
Substance: wild-type Angiogenin-GST (human Angiogenin fused to GST, with a C-terminal hexa-histidine tag) (from UniProt P03950 25-147) (enzyme)
